# Publication PMC7393678, “First Evidence of Acyl-Hydrolase/Lipase Activity From Human Probiotic Bacteria: Lactobacillus rhamnosus GG and Bifidobacterium longum NCC 2705” (Frontiers in Microbiology, 2020)
# B1: BlLyp (Bifidobacterium longum NCC2705) (protein)
# chain: PPDNRRVSRLIRHTGKGLSGSFPFCSCRSWAKVGVFALPNPPLKGPVVMPINEALFAAMKAASYIKPNAGKSYKLQRVAEELIAKQAPANPKCRVEDAFAPMADGYAVPLRVFTPLVAYGAPLPEALEESSANGTPVASAISAILPAVLPKVLPKILIKESTSSGNADGISGNANTELPSVTPRGTILFFHGGGWTTGGINLYTQACAHMAVRLQRRVISVEYRLAPEYRFPTAVEDCYEVARQLFAGELPISGVGGSVDVDHPQSAAPTAPAGGGDISATIPAPDPDSIVLFGDSAGGNLAAAVSLMARDRGEFMPRTQMLLYPVVGNDYNPETSPFESVRTNGTDYILTAQDMADYIDMYRSSVADLTNPYFAPLTAHDLSNQPRTLVLSAEYCPLRDEDEAYARRLQLVNDNVSCYRIHDGIHGYLLNTSAVGLVATTYRIIEHFLDGTPLEPAPGTGTTANAPEGGDAWQDVLGTD
# notes: C-terminal His6 (pET21b); E. coli; monomer at pH 7
# Tests used:
# LrLyp [1] = system: T1, LrLyp; assay: p-nitrophenol release at […] nm, initial rates, substrate inhibition model; assay type: biochemical, Lacticaseibacillus rhamnosus; conditions: substrate inhibition constant, second site; pH 7, 37°C, 20 mM McIlvaine buffer, substrate 0.1-9 mM
# T1 construct: C-terminal His6 (pET21b); E. coli; probably monomer
# LrLyp [2] = system: T1, LrLyp; assay: as above; assay type: biochemical, Lacticaseibacillus rhamnosus; conditions: pH 7, 37°C, 20 mM McIlvaine buffer, substrate 0.1-9 mM from DMSO/Triton X-100 stock; apparent constant from substrate inhibition fit; read-out: KMapp
# purified protein = substrate: CCCCCCCCCCCC(=O)Oc1ccc([N+](=O)[O-])cc1; assay: purified protein; assay type: biochemical, Bifidobacterium longum; conditions: pH 7, 37°C, 20 mM McIlvaine buffer, substrate 0.1-9 mM from DMSO/Triton X-100 stock, apparent constant
Molecule,KIapp (LrLyp [1]),Km (LrLyp [2]),Km (purified protein),Vmax (purified protein),kcat (purified protein),kcat/Km (purified protein)
CCCCCCCCCCCC(=O)Oc1ccc([N+](=O)[O-])cc1 [pNP-laurate],1.57 mM,11.4 mM,–,–,–,–
B1,–,–,2.56 mM,0.05 µmol/min/mg,0.04 s⁻¹,16 M⁻¹ s⁻¹
